Measurements: US20220251176A1 (GREEN CROSS, published 2022)

B1: anti-MSLN/anti-CD3 bispecific antibody HMI323/HMI323-A15 (bispecific antibody, human IgG1, kappa, lambda, L234A L235A)
chain 1: DIQMTQSPSSLSASVGDRVTITCRASQDVSTAVAWYQQKPGKAPKLLIYSASYRYPGVPSRFSGSGSGTDFTLTISSLQPEDFATYYCQQHYSTPWTFGGGTKLEIKRTVAAPSVFIFPPSDEQLKSGTASVVCLLNNFYPREAKVQWKVDNALQSGNSQESVTEQDSKDSTYSLSSTLTLSKADYEKHKVYACEVTHQGLSSPVTKSFNRGECSGGGSGGGSEGGGSEGGGSEGGGSEGGGSGGGSGEVQLVQSGAEVKKPGTSVKVSCKASGYSFTSYFIQWVRQAPGQGLEWIGWIFPGSGNTKYSQKFQGRVTITRDTSTSTAYMELSSLRSEDTAVYYCARSGGYQYYFDYWGQGTLVTVSSASTKGPSVFPLAPSSKSTSGGTAALGCLVKDYFPEPVTVSWNSGALTSGVHTFPAVLQSSGLYSLSSVVTVPSSSLGTQTYICNVNHKPSNTKVDKKVGGGGSGGGGSGGGGSQAVVTQEPSLTVSPGGTVTLTCRSSTGAVTTSNYANWVQQKPGQAPRGLIGGTNKRAPWTPARFSGSLLGGKAALTLSGAQPEDEAEYYCALWYSNLWVFGGGTKLTVLGQPKANPTVTLFPPSSEELQANKATLVCLISDFYPGAVTVAWKADGSPVKAGVETTKPSKQSNNKYAASSYLSLTPEQWKSHRSYSCQVTHEGSTVEKTVAPTECSGGGSGGGSEGGGSEGGGSEGGGSEGGGSGGGSGEVQLVESGGGLVQPGGSLKLSCAASGFTFNTYAMNWVRQASGKGLEWVGRIRSKYNNYATYYADSVKDRFTISRDDSKNTAYLQMNSLKTEDTAVYYCVRHGNFGNSYVSWFAYWGQGTLVTVSSASTKGPSVFPLAPSSKSTSGGTAALGCLVKDYFPEPVTVSWNSGALTSGVHTFPAVLQSSGLYSLSSVVTVPSSSLGTQTYICNVNHKPSNTKVDKKVEPKSCDKTHTCPPCPAPEAAGGPSVFLFPPKPKDTLMISRTPEVTCVVVDVSHEDPEVKFNWYVDGVEVHNAKTKPREEQYNSTYRVVSVLTVLHQDWLNGKEYKCKVSNKALPAPIEKTISKAKGQPREPRVYTLPPCRDELTKNQVSLTCLVKGFYPSDIAVEWESNGQPENNYKTTPPVLVSDGSFTLYSKLTVDKSRWQQGNVFSCSVMHEALHNHYTQKSLSLSPG
chain 2: DIQMTQSPSSLSASVGDRVTITCRASQDVSTAVAWYQQKPGKAPKLLIYSASYRYPGVPSRFSGSGSGTDFTLTISSLQPEDFATYYCQQHYSTPWTFGGGTKLEIKRTVAAPSVFIFPPSDEQLKSGTASVVCLLNNFYPREAKVQWKVDNALQSGNSQESVTEQDSKDSTYSLSSTLTLSKADYEKHKVYACEVTHQGLSSPVTKSFNRGECSGGGSGGGSEGGGSEGGGSEGGGSEGGGSGGGSGEVQLVQSGAEVKKPGTSVKVSCKASGYSFTSYFIQWVRQAPGQGLEWIGWIFPGSGNTKYSQKFQGRVTITRDTSTSTAYMELSSLRSEDTAVYYCARSGGYQYYFDYWGQGTLVTVSSASTKGPSVFPLAPSSKSTSGGTAALGCLVKDYFPEPVTVSWNSGALTSGVHTFPAVLQSSGLYSLSSVVTVPSSSLGTQTYICNVNHKPSNTKVDKKVEPKSCDKTHTCPPCPAPEAAGGPSVFLFPPKPKDTLMISRTPEVTCVVVDVSHEDPEVKFNWYVDGVEVHNAKTKPREEQYNSTYRVVSVLTVLHQDWLNGKEYKCKVSNKALPAPIEKTISKAKGQPREPQVCTLPPSRDELTENQVSLTCLVKGFYPSDIAVEWESNGQPENNYKTTPPVLDSDGSFFLYSWLTVDKSRWQQGNVFSCSVMHEALHNHYTQKSLSLSPG
notes: Knob-into-hole heterodimer of two single chains, 2+1 IgG format
B2: recombinant human CD3 (receptor)
chain: DGNEEMGGITQTPYKVSISGTTVILTCPQYPGSEILWQHNDKNIGGDEDDKNIGSDEDHLSLKEFSELEQSGYYVCYPRGSKPEDANFYLYLRARVCENCMEMD

Tests used:
[1] = molecular target: T1, MSLN on H226 and AsPC-1 cancer cell lines (UniProt Q13421 296-598); assay: cell-based or functional assay
T1 sequence (Q13421 other isoform, or with tags, fused parts or gaps limits assumed): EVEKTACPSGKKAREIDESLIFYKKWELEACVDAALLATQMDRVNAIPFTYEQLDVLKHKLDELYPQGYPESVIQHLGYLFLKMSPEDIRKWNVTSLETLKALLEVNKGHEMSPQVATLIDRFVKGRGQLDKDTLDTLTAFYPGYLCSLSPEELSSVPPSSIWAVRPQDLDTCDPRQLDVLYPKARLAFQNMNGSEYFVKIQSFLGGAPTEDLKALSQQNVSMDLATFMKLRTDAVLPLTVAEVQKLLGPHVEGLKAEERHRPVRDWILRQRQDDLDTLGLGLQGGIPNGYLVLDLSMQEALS

recombinant human MSLN = molecular target: T2, recombinant human MSLN (human, UniProt Q13421 296-580, limits assumed); assay: BLI (Octet), antigen immobilised on APS sensor, antibody 6.25-100 nM
T2 construct: Immobilised on an APS sensor in the Octet assay; also called mesothelin
T2 sequence (Q13421 other isoform, or with tags, fused parts or gaps limits assumed): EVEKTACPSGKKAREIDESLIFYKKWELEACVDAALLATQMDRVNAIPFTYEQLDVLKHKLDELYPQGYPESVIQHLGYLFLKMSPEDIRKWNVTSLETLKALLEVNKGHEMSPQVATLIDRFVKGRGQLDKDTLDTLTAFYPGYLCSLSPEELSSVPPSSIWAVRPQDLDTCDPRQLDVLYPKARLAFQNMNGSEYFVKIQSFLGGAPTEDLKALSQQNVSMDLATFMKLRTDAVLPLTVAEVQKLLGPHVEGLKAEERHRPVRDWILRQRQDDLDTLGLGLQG

recombinant human CD3 = molecular target: B2; assay: as above
[2] = molecular target: T3, CD3 on Jurkat E6-1 T cell line (UniProt P07766 23-207); assay: flow cytometry on Jurkat E6-1 cells (express CD3), PE anti-human IgG
T3 construct: whole, on cells; On the cells CD3 is the whole complex
Protocol: (§1) Then, light was blocked for one and a half hours and incubation was performed at 4° C. Subsequently, 200 μl of FACS buffer was added thereto. Centrifugation was performed at 2,000 rpm for 3 minutes at 4° C., and then the supernatant was removed.
(§2) Then, light was blocked for 30 minutes and incubation was performed at 4° C. Subsequently, 200 μl of FACS buffer was added thereto, and centrifugation was performed at 2,000 rpm for 3 minutes at 4° C.; and then the supernatant was removed to obtain a sample.
(§3) 200 μl of BD CYTOFIX™ was added to the sample so that the cells were suspended, and analysis was performed by BD LSR FORTESSA™.

[3] = molecular target: T1, MSLN on H226 and AsPC-1 cancer cell …; assay: flow cytometry on H226 cells (overexpress MSLN and EGFR), PE anti-human IgG
Protocol: as §1, §2, §3

[4] = molecular target: T1, MSLN on H226 and AsPC-1 cancer cell …; assay: flow cytometry on AsPC-1 cells (overexpress MSLN and EGFR), PE anti-human IgG
Protocol: as §1, §2, §3

[5] = molecular target: T4, anti-EGFR/anti-MSLN/anti-CD3 trispecific antibody Cetuximab/HMI323-A15; assay: BLI (Octet), antigen immobilised on APS sensor, antibody 6.25-100 nM
T4 construct: Trispecific antibody: knob-into-hole heterodimer of two single chains, 2+1 IgG format

| Kd (recombinant human MSLN) | koff (recombinant human MSLN) | kon (recombinant human MSLN) | Kd (recombinant human CD3) | koff (recombinant human CD3) | kon (recombinant human CD3) | EC50 [2] | EC50 [3] | EC50 [4] | Kd [5] | koff [5] | kon [5] | Binder | IC50 of PBMC-mediated cell killing; AsPC-1; PBMC:target cell 10:1; 24 hr [1] | IC50 of PBMC-mediated cell killing; AsPC-1; PBMC:target cell 10:1; 48 hr [1] | IC50 of PBMC-mediated cell killing; AsPC-1; PBMC:target cell 20:1; 48 hr [1] | IC50 of PBMC-mediated cell killing; H226; PBMC:target cell 10:1; 24 hr [1] | IC50 of PBMC-mediated cell killing; H226; PBMC:target cell 10:1; 48 hr [1] | IC50 of PBMC-mediated cell killing; H226; PBMC:target cell 20:1; 48 hr [1] |
| --- | --- | --- | --- | --- | --- | --- | --- | --- | --- | --- | --- | --- | --- | --- | --- | --- | --- | --- |
| 7.79 nM | 0.000774 s⁻¹ | 99400 M⁻¹ s⁻¹ | 52.6 nM | 0.0242 s⁻¹ | 461000 M⁻¹ s⁻¹ | 58 nM | 6.2 nM | 4.7 nM |  |  |  | B1 | 0.406 nM | 0.144 nM | 0.0304 nM | 0.0844 nM | 0.0503 nM | 0.0153 nM |
|  |  |  |  |  |  |  |  |  | 13.5 nM | 0.00625 s⁻¹ | 463000 M⁻¹ s⁻¹ | B2 |  |  |  |  |  |  |
